# Assay results published in US20240327503A1.
# Target: SARS-CoV-2 spike ECD S-2P (SARS-CoV-2) (UniProt P0DTC2)
substance,measurement,value
CR3022 (antibody),EC50,3.6 nM
